Each substance was assayed against HLA-A*02:01 (Homo sapiens, UniProt P04439, D140Y/D185E/D98H/E176V/E277Q/G131W/G231S/I119V/I121R/I166T/I218V/L300P/L318F/N151K/N90K/P208A/P217A/Q86G/Q94H/R138H/R169H/T345S) (assay: MHC binding assay: UV-ligand exchange with beta2m ELISA (peptide exchange yield)). Conditions: binding to HLA-A*02:01.
How it was run: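 Values give exchange yield, measured by β2m ELISA: 100-fold-diluted monomers bound to streptavidin plates (1h, 37° C), probed with HRP anti-β2m at 2 ug/ml and read at 450 nm after TMB. Monomers came from UV-triggered cleavage of a photolabile peptide and exchange for the test peptide.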

| Substance | Peptide exchange (MHC class I binding score, peptide exchange yield) |
| --- | --- |
| 83 (ILAPTVMMI; listed as Homo sapiens) [compound 83] | “+++” (≥50 = +++) |
| 304 (MTLGQIYYL; listed as Homo sapiens) [compound 304] | “+++” (≥50 = +++) |
| 70 (GLLDYPVGV; listed as Homo sapiens) [compound 70] | “+++” (≥50 = +++) |
| 240 (ILLEQAFYL; listed as Homo sapiens) [compound 240] | “+++” (≥50 = +++) |
| 179 (KVLNELYTV; listed as Homo sapiens) [compound 179] | “+++” (≥50 = +++) |
| 249 (LLDGFLVNV; listed as Homo sapiens) [compound 249] | “+++” (≥50 = +++) |
| 205 (SLYPGTETMGL; listed as Homo sapiens) [compound 205] | “+++” (≥50 = +++) |
| 342 (HIYDKVMTV; listed as Homo sapiens) [compound 342] | “+++” (≥50 = +++) |
| 295 (VLDRESPNV; listed as Homo sapiens) [compound 295] | “+++” (≥50 = +++) |
| 491 (GLNDRSDAV; listed as Homo sapiens) [compound 491] | “++” (≥20% = ++) |
| 377 (FLLDSSASV; listed as Homo sapiens) [compound 377] | “++” (≥20% = ++) |
| 302 (ALLQEGEVYSA; listed as Homo sapiens) [compound 302] | “+++” (≥50 = +++) |
| 264 (SLQEQLHSV; listed as Homo sapiens) [compound 264] | “+++” (≥50 = +++) |
| 395 (ALALGGIAVV; listed as Homo sapiens) [compound 395] | “++++” (≥75% = ++++) |
| 13 (YLMDESLNL; listed as Homo sapiens) [compound 13] | “+++” (≥50 = +++) |
| 433 (AMLNEPWAV; listed as Homo sapiens) [compound 433] | “+++” (≥50 = +++) |
| 218 (SALEELVNV; listed as Homo sapiens) [compound 218] | “++” (≥20% = ++) |
| 93 (LLQAIKLYL; listed as Homo sapiens) [compound 93] | “++” (≥20% = ++) |
| 77 (ILVEADGAWVV; listed as Homo sapiens) [compound 77] | “++++” (≥75% = ++++) |
| 400 (SLLTEQDLWTV; listed as Homo sapiens) [compound 400] | “++” (≥20% = ++) |
| 253 (GLDAATATV; listed as Homo sapiens) [compound 253] | “++” (≥20% = ++) |
| 22 (IMEENPGIFAV; listed as Homo sapiens) [compound 22] | “+++” (≥50 = +++) |
| 450 (FMIDASVHPTL; listed as Homo sapiens) [compound 450] | “+++” (≥50 = +++) |

| Substance | Peptide exchange (MHC class I binding score, peptide exchange yield) |
| --- | --- |
| 501 (LLDPNVKSIFV; listed as Homo sapiens) [compound 501] | “+++” (≥50 = +++) |
| 311 (RLYTGMHTV; listed as Homo sapiens) [compound 311] | “+++” (≥50 = +++) |
| 138 (YQYPRAILSV; listed as Homo sapiens) [compound 138] | “+++” (≥50 = +++) |
| 573 (ILVANAIVGV; listed as Homo sapiens) [compound 573] | “+++” (≥50 = +++) |
| 102 (YLFESEGLVL; listed as Homo sapiens) [compound 102] | “+++” (≥50 = +++) |
| 428 (KLGHTDILVGV; listed as Homo sapiens) [compound 428] | “++” (≥20% = ++) |
| 583 (ILANDGVLLAA; listed as Homo sapiens) [compound 583] | “+++” (≥50 = +++) |
| 82 (FLSSVTYNL; listed as Homo sapiens) [compound 82] | “+++” (≥50 = +++) |
| 162 (YQQAQVPSV; listed as Homo sapiens) [compound 162] | “+++” (≥50 = +++) |
| 434 (KVSNSGITRV; listed as Homo sapiens) [compound 434] | “++” (≥20% = ++) |
| 20 (RMIEYFIDV; listed as Homo sapiens) [compound 20] | “+++” (≥50 = +++) |
| 114 (SLVGEPILQNV; listed as Homo sapiens) [compound 114] | “++” (≥20% = ++) |
| 522 (TLWYRSPEV; listed as Homo sapiens) [compound 522] | “++” (≥20% = ++) |
| 267 (ALQDFLLSV; listed as Homo sapiens) [compound 267] | “+++” (≥50 = +++) |
| 504 (GLSDGNPSL; listed as Homo sapiens) [compound 504] | “++” (≥20% = ++) |
| 117 (ILPDGEDFLAV; listed as Homo sapiens) [compound 117] | “+++” (≥50 = +++) |
| 544 (LLWDVPAPSL; listed as Homo sapiens) [compound 544] | “+++” (≥50 = +++) |
| 464 (ALNDCIYSV; listed as Homo sapiens) [compound 464] | “+++” (≥50 = +++) |
| 381 (FIDEAYVEV; listed as Homo sapiens) [compound 381] | “++” (≥20% = ++) |
| 254 (TLLAFIMEL; listed as Homo sapiens) [compound 254] | “+++” (≥50 = +++) |
| 224 (TLIDAQWVL; listed as Homo sapiens) [compound 224] | “+++” (≥50 = +++) |
| 516 (AVGPASILKEV; listed as Homo sapiens) [compound 516] | “++” (≥20% = ++) |
| 2 (SLLEADPFL; listed as Homo sapiens) [compound 2] | “+++” (≥50 = +++) |

| Substance | Peptide exchange (MHC class I binding score, peptide exchange yield) |
| --- | --- |
| 123 (NLWDLTDASVV; listed as Homo sapiens) [compound 123] | “+++” (≥50 = +++) |
| 562 (YLEELPEKLKL; listed as Homo sapiens) [compound 562] | “+++” (≥50 = +++) |
| 356 (KLLGKLPEL; listed as Homo sapiens) [compound 356] | “+++” (≥50 = +++) |
| 440 (ALADGVTMQV; listed as Homo sapiens) [compound 440] | “++” (≥20% = ++) |
| 619 (ALQDRVPLA; listed as Homo sapiens) [compound 619] | “+++” (≥50 = +++) |
| 87 (ALPEAPAPLLPHIT; listed as Homo sapiens) [compound 87] | “++” (≥20% = ++) |
| 353 (YLFEMDSSL; listed as Homo sapiens) [compound 353] | “++” (≥20% = ++) |
| 274 (SLLFSLFEA; listed as Homo sapiens) [compound 274] | “++” (≥20% = ++) |
| 33 (VLLSLLEKV; listed as Homo sapiens) [compound 33] | “++” (≥20% = ++) |
| 401 (ILLDDTGLAYI; listed as Homo sapiens) [compound 401] | “+++” (≥50 = +++) |
| 235 (YLNDLHEVLL; listed as Homo sapiens) [compound 235] | “++++” (≥75% = ++++) |
| 106 (LLYDAVHIVSV; listed as Homo sapiens) [compound 106] | “+++” (≥50 = +++) |
| 457 (SLLPGNLVEKV; listed as Homo sapiens) [compound 457] | “+++” (≥50 = +++) |
| 121 (GVVDPRAISVL; listed as Homo sapiens) [compound 121] | “++” (≥20% = ++) |
| 589 (KLYPQLPAEI; listed as Homo sapiens) [compound 589] | “+++” (≥50 = +++) |
| 110 (FLSQVDFEL; listed as Homo sapiens) [compound 110] | “+++” (≥50 = +++) |
| 618 (VLFDSESIGIYV; listed as Homo sapiens) [compound 618] | “+++” (≥50 = +++) |
| 432 (TLIEESAKV; listed as Homo sapiens) [compound 432] | “++” (≥20% = ++) |
| 237 (ALLEASGTLLL; listed as Homo sapiens) [compound 237] | “++++” (≥75% = ++++) |
| 592 (RLLSAAENFL; listed as Homo sapiens) [compound 592] | “+++” (≥50 = +++) |
| 363 (KVLDVSDLESV; listed as Homo sapiens) [compound 363] | “++” (≥20% = ++) |
